According to PMC5803212, “Supramolecular aptamer nano-constructs for receptor-mediated targeting and light-triggered release of chemotherapeutics into cancer cells”:

Legend:
[1] = biological target: cMet-Fc (HGFR ectodomain fused to human IgG1 Fc) (human) (UniProt P08581); experiment: competition filter binding; conditions: vs 5'-32P-trCLN3; ~50 nM cMet; four 5'-terminal 5-(1-dodecynyl)-dU (C12 lipid; printed as LLLL, written as UUUU); 1x PBS pH 7.4, 2 mM MgCl2, 0.1 mg/mL E. coli tRNA, 0.25 mg/mL BSA, 37 C, 30 min; ~25 fmol 32P-trCLN3, ~50 nM cMet, 25 uL, nitrocellulose filter
[2] = biological target: cMet-Fc (HGFR ectodomain fused to human IgG1 Fc) (human, UniProt P08581 25-932); experiment: competition filter binding; vs 5'-32P-trCLN3; ~50 nM cMet; 1x PBS pH 7.4, 2 mM MgCl2, 0.1 mg/mL E. coli tRNA, 0.25 mg/mL BSA, 37 C, 30 min; ~25 fmol 32P-trCLN3, ~50 nM cMet, 25 uL, nitrocellulose filter; conditions: protein: commercial; two predicted intramolecular G-quadruplexes
Chain of cMet-Fc (HGFR ectodomain fused to human IgG1 Fc) (P08581 25-932): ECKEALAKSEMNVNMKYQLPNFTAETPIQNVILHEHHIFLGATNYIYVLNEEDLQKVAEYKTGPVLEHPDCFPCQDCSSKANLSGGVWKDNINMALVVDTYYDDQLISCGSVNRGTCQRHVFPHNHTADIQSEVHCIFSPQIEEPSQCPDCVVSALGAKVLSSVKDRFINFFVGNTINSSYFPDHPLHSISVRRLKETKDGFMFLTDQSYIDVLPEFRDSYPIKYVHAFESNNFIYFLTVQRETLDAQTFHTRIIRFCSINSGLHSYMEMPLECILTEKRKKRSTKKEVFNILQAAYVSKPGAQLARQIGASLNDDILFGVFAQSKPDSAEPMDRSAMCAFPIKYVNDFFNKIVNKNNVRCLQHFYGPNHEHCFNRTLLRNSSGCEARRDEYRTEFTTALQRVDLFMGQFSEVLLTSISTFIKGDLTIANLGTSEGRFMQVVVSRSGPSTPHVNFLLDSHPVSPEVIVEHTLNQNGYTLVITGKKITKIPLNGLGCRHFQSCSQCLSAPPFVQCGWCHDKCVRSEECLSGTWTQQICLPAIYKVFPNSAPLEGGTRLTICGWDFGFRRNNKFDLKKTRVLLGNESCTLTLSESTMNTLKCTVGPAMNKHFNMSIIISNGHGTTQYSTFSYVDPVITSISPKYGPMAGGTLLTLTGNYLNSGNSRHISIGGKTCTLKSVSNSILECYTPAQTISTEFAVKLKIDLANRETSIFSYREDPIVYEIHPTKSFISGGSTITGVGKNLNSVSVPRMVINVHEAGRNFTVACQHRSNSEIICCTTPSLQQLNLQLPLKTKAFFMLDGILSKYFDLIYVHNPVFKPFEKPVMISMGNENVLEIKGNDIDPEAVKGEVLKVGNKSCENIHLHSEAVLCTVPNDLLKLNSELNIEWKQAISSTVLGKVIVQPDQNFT

Chain of cMet-Fc (HGFR ectodomain fused to human IgG1 Fc) (human) (P08581 25-932): as above

## UUUUTGGATGGTAGCTCGGTCGGGGTGGGTGGGTTGGCAAGTCT [trCLN3-L4]
[1]
  IC50: 43 nM

B1: trCLN3 (structured_DNA)
DNA: TGGATGGTAGCTCGGTCGGGGTGGGTGGGTTGGCAAGTCT
[2]
  IC50: 56 nM
